According to patent US20220315909:

What was measured:
[1] = test system: SEQ ID NO 17995
[2] = test system: SEQ ID NO 18000
[3] = test system: SEQ ID NO 18001
[4] = test system: SEQ ID NOs: 17202-17993
[5] = test system: SEQ ID NO 17994
[6] = test system: SEQ ID NO 18002
[7] = test system: SEQ ID NO 18003
[8] = test system: SEQ ID NO 17996
[9] = test system: SEQ ID NO 17999
[10] = test system: SEQ ID NOs: 5-17201
[11] = test system: SEQ ID NO 17998
[12] = test system: SEQ ID NO 17997
[13] = test system: SEQ ID NOs: 5-3204
[14] = test system: SEQ ID NO 17202
[15] = test system: SEQ ID NO 17203

Chain of Recombinant Mouse u-Plasminogen Activator/Urokinase (chain, as listed by the source): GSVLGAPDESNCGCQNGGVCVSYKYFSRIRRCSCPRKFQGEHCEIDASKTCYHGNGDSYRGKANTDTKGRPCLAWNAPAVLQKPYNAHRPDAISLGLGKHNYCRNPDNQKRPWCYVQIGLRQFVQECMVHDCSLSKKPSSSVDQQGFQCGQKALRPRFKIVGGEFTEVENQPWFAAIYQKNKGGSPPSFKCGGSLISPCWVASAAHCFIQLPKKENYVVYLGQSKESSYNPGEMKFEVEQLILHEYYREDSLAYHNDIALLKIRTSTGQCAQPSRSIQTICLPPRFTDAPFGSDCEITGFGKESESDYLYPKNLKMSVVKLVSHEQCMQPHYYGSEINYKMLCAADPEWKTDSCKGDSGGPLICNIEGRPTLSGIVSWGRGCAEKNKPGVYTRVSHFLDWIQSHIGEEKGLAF

Recombinant Human u-Plasminogen Activator/Urokinase
cleavage ratio (PAR) on peptide array, human uPA 1000 nM [1]: showed higher cleavage ratios than the sequence shown as SEQ ID NO: 3 for both the cleavages by human uPA and human MT-SP1
cleavage ratio (PAR) on peptide array, human uPA 1000 nM [2]: showed higher cleavage ratios than the sequence shown as SEQ ID NO: 3 for both the cleavages by human uPA and human MT-SP1
cleavage ratio (PAR) on peptide array, human uPA 1000 nM [3]: showed higher cleavage ratios than the sequence shown as SEQ ID NO: 3 for both the cleavages by human uPA and human MT-SP1
cleavage ratio (PAR) on peptide array, human uPA 1000 nM [4]: showed higher cleavage ratios than the sequence shown as SEQ ID NO: 3 for both the cleavages by human uPA and human MT-SP1
cleavage ratio (PAR) on peptide array, human uPA 1000 nM [5]: showed higher cleavage ratios than the sequence shown as SEQ ID NO: 3 for both the cleavages by human uPA and human MT-SP1
cleavage ratio (PAR) on peptide array, human uPA 1000 nM [6]: showed higher cleavage ratios than the sequence shown as SEQ ID NO: 3 for both the cleavages by human uPA and human MT-SP1
cleavage ratio (PAR) on peptide array, human uPA 1000 nM [7]: showed higher cleavage ratios than the sequence shown as SEQ ID NO: 3 for both the cleavages by human uPA and human MT-SP1
cleavage ratio (PAR) on peptide array, human uPA 1000 nM [8]: showed higher cleavage ratios than the sequence shown as SEQ ID NO: 3 for both the cleavages by human uPA and human MT-SP1
cleavage ratio (PAR) on peptide array, human uPA 1000 nM [9]: showed higher cleavage ratios than the sequence shown as SEQ ID NO: 3 for both the cleavages by human uPA and human MT-SP1
cleavage ratio (PAR) on peptide array, human uPA 1000 nM [10]: showed higher cleavage ratios than the sequence shown as SEQ ID NO: 2 for both the cleavages by human uPA and human MT-SP1
cleavage ratio (PAR) on peptide array, human uPA 1000 nM [11]: showed higher cleavage ratios than the sequence shown as SEQ ID NO: 3 for both the cleavages by human uPA and human MT-SP1
cleavage ratio (PAR) on peptide array, human uPA 1000 nM [12]: showed higher cleavage ratios than the sequence shown as SEQ ID NO: 3 for both the cleavages by human uPA and human MT-SP1

Recombinant Mouse u-Plasminogen Activator/Urokinase
cleavage ratio (PAR) on peptide array, mouse uPA 1000 nM [1]: also showed higher cleavage ratios for mouse uPA than the sequence shown as SEQ ID NO: 3
cleavage ratio (PAR) on peptide array, mouse uPA 1000 nM [13]: showed higher cleavage ratios than the sequence shown as SEQ ID NO: 2 for all the cleavages by human uPA, human MT-SP1, and mouse uPA
cleavage ratio (PAR) on peptide array, mouse uPA 1000 nM [5]: also showed higher cleavage ratios for mouse uPA than the sequence shown as SEQ ID NO: 3
cleavage ratio (PAR) on peptide array, mouse uPA 1000 nM [8]: also showed higher cleavage ratios for mouse uPA than the sequence shown as SEQ ID NO: 3
cleavage ratio (PAR) on peptide array, mouse uPA 1000 nM [9]: also showed higher cleavage ratios for mouse uPA than the sequence shown as SEQ ID NO: 3
cleavage ratio (PAR) on peptide array, mouse uPA 1000 nM [14]: also showed higher cleavage ratios for mouse uPA than the sequence shown as SEQ ID NO: 3
cleavage ratio (PAR) on peptide array, mouse uPA 1000 nM [15]: also showed higher cleavage ratios for mouse uPA than the sequence shown as SEQ ID NO: 3
cleavage ratio (PAR) on peptide array, mouse uPA 1000 nM [11]: also showed higher cleavage ratios for mouse uPA than the sequence shown as SEQ ID NO: 3
cleavage ratio (PAR) on peptide array, mouse uPA 1000 nM [12]: also showed higher cleavage ratios for mouse uPA than the sequence shown as SEQ ID NO: 3
